B1: D. melanogaster desaturase: Δ9 desaturase from Drosophila melanogaster Dmd9, SEQ ID NO: 10 (protein)
chain: MAPYSRIYHQDKSSRETGVLFEDDAQTVDSDLTTDRFQLKRAEKRRLPLVWRNIILFALVHLAALYGLHSIFTRAKLATTLFAAGLYIIGMLGVTAGAHRLWAHRTYKAKWPLRLLLVIFNTIAFQDAVYHWARDHRVHHKYSETDADPHNATRGFFFSHVGWLLCKKHPDIKEKGRGLDLSDLRADPILMFQRKHYYILMPLACFVLPTVIPMVYWNETLASSWFVATMFRWCFQLNMTWLVNSAAHKFGNRPYDKTMNPTQNAFVSAFTFGEGWHNYHHAFPWDYKTAEWGCYSLNITTAFIDLFAKIGWAYDLKTVAPDVIQRRVLRTGDGSHELWGWGDKDLTAEDARNVLLVDKSR
modifications: Drosophila melanogaster

Experiments:
[1] = tested on: fall armyworm; settings: applied alone, without other pheromone components; cited from earlier work
[2] = tested on: C14-CoA substrate; experiment: activity and specificity of heterologous desaturases in yeast fed methyl myristate, FAMEs by GC-MS; format: cell-based, S. cerevisiae; settings: among the tested desaturases
[3] = production of (Z)-9-tetradecen-1-yl acetate by S. cerevisiae CEN.PK102-5B strains, GC-MS; settings: overexpression of desaturase, ST5290 versus ST4854
Experimental: The strains for production of pheromone were created on the basis of S. cerevisiae CEN.PK102-5B, which had active OLE1 and ELO1 genes.
Strains ST4854 and ST5290 were inoculated into 5 ml synthetic complete medium (lacking histidine, leucine, tryptophan supplemented with 20 mg/L uracil and 76 mg/L histidine) and cultivated in 12-ml glass tubes (Duran, Wertheim, Germany) with metal labocap lids (Lüdiswiss, Flawil, Switzerland) overnight at 30° C. with shaking at 250 rpm. The following day the overnight culture was centrifuged, the supernatant was discarded and the pellet was resuspended in 2 ml of mineral medium, which had the composition as described in (Jensen et al, 2014). The medium was supplemented with 76 mg/L histidine and 20 mg/L uracil. The cultures were incubated at 30° C. with shaking at 250 rpm for 48 hours.
1 mL sample of culture was transferred into a 4-mL glass vial and 10 μL of internal standard stock (1 μg/μl (Z)10-heptan-1-yl methyl ester in 100% ethanol) was added. The vials were covered with small pieces of aluminum foil and we used a needle to pierce small holes in the foil covers. The samples were vortexed and placed at −80° C. for storage until analysis. […] The concentration of (Z)-9-tetradecen-1-yl acetate was calculated based on internal standard.

| Molecule | disruption of mating efficiency [1] | activity and specificity towards C14-CoA substrate [2] | increase of titer of Z9:14:OAc [3] |
| --- | --- | --- | --- |
| CCCC/C=C\CCCCCCCCOC(C)=O [(Z)19-14:OAc, (Z)9-tetradecen-1-yl acetate] | 86% |  |  |
| B1 |  | highest activity and specificity | more than 5 fold |

— patent US11434506B2, “Production of desaturated fatty alcohols and desaturated fatty alcohol acetates in yeast” (Danmarks Tekniske Universitet, priority 2016, dated 2022)
